Experimental data reported in PMC3306459 (Journal of Inorganic Biochemistry, 2011).
Residue numbers refer to the chain shown, from its start. Names and notes keep the numbering of the source.

T1: G450A iNOS full length protein (mouse, UniProt P29477 1-1144, G450A)
T1 sequence (looked up): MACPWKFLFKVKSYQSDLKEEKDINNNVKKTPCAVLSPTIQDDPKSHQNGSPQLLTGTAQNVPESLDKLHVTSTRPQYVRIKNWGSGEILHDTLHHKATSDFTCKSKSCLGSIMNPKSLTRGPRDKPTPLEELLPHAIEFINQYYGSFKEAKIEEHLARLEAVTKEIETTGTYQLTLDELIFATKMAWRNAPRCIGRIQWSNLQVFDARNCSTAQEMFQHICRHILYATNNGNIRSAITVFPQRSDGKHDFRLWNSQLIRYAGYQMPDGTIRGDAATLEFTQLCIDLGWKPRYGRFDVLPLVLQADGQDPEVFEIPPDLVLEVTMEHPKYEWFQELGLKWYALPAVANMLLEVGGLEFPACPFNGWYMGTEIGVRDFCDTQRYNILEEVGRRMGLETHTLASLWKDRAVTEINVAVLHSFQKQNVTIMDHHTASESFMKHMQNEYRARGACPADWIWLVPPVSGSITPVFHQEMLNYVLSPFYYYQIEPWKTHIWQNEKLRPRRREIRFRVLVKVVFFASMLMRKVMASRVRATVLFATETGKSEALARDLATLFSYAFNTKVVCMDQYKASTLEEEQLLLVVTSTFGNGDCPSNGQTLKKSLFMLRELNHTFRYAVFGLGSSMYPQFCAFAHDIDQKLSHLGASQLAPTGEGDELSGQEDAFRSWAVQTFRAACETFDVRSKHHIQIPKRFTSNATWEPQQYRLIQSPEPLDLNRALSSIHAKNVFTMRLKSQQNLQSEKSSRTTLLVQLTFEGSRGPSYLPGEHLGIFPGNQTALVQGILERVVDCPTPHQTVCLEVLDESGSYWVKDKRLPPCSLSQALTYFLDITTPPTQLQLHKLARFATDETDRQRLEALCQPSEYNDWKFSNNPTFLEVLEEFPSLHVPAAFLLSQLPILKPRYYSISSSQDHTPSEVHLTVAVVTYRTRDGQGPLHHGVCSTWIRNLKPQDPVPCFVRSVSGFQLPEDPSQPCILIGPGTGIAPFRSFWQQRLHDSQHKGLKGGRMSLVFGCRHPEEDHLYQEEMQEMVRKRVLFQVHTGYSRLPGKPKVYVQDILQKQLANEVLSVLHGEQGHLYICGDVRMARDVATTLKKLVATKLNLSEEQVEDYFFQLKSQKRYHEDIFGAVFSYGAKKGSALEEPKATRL

B1: wild type Δ65iNOSoxy domain (oxygenase domain of inducible nitric oxide synthase, amino acid 66–498) (domain or fragment, mouse, UniProt P29477 66-498, looked up)
chain: LDKLHVTSTRPQYVRIKNWGSGEILHDTLHHKATSDFTCKSKSCLGSIMNPKSLTRGPRDKPTPLEELLPHAIEFINQYYGSFKEAKIEEHLARLEAVTKEIETTGTYQLTLDELIFATKMAWRNAPRCIGRIQWSNLQVFDARNCSTAQEMFQHICRHILYATNNGNIRSAITVFPQRSDGKHDFRLWNSQLIRYAGYQMPDGTIRGDAATLEFTQLCIDLGWKPRYGRFDVLPLVLQADGQDPEVFEIPPDLVLEVTMEHPKYEWFQELGLKWYALPAVANMLLEVGGLEFPACPFNGWYMGTEIGVRDFCDTQRYNILEEVGRRMGLETHTLASLWKDRAVTEINVAVLHSFQKQNVTIMDHHTASESFMKHMQNEYRARGGCPADWIWLVPPVSGSITPVFHQEMLNYVLSPFYYYQIEPWKTHIWQNE
B2: R375N Δ65iNOSoxy (amino acid 66–498) (domain or fragment, mouse, UniProt P29477 66-498, looked up)
chain: B1 chain with R310N
B3: R375K Δ65iNOSoxy (amino acid 66–498) (domain or fragment, mouse, UniProt P29477 66-498, looked up)
chain: B1 chain with R310K
B4: R375D Δ65iNOSoxy (amino acid 66–498) (domain or fragment, mouse, UniProt P29477 66-498, looked up)
chain: B1 chain with R310D

Target: T1, G450A iNOS full length protein
Test: cell-based or functional assay

NO2^- production of the heterodimer, Griess assay [µM]	NO synthesis (min^-1) of the heterodimer, oxyhemoglobin assay [min⁻¹]	Binder
30.3	51.8	B1
6.3	8.6	B2
7.8	17.6	B3
1.8	1.7	B4

Target: the molecule itself
Test: SEC

Binder	dimer content [%]
B2	38
B3	100
B4	30
